Experiments:
CYP3A4 [1] = molecular target: T1, CYP3A4 (Homo sapiens, UniProt P08684); test: Steady-state kinetics of overall NSAID metabolism; type: in vitro ADME
CYP2C19 [2] = molecular target: T2, CYP2C19 (Homo sapiens, UniProt P33261); test: Relative CYP contribution to hepatic bioactivation and detoxification, CYP2C19; type: in vitro ADME
CYP2C9 = CYP2C9 (Homo sapiens, UniProt P11712); test: Relative CYP contribution to hepatic bioactivation and detoxification, CYP2C9; type: in vitro ADME
CYP3A4 [3] = molecular target: T1, CYP3A4; test: Relative CYP contribution to hepatic bioactivation and detoxification, CYP3A4; type: in vitro ADME
CYP2C8 [4] = molecular target: T3, CYP2C8 (Homo sapiens, UniProt P10632); test: Relative CYP contribution to hepatic bioactivation and detoxification, CYP2C8; type: in vitro ADME
T3 sequence (P10632 1-490): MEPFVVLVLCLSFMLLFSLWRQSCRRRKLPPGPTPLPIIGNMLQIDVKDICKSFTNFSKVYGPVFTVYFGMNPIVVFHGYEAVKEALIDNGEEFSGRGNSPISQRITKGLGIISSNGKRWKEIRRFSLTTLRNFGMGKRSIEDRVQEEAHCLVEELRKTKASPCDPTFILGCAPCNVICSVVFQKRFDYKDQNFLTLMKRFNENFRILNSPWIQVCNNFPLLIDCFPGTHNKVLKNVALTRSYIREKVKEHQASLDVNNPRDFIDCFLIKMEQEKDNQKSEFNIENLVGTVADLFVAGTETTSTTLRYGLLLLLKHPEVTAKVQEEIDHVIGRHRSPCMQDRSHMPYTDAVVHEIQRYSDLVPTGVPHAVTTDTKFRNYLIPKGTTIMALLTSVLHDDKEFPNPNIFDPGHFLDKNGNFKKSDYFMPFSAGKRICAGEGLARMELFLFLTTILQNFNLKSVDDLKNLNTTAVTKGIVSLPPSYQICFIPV

CYP2C19 [5] = molecular target: T2, CYP2C19; test: Steady-state kinetics of overall NSAID metabolism; type: in vitro ADME
CYP2C8 [6] = molecular target: T3, CYP2C8; test: Steady-state kinetics of overall NSAID metabolism; type: in vitro ADME
[7] = substrate: O=C(O)COC(=O)Cc1ccccc1Nc1c(Cl)cccc1Cl; test: Steady-state bioactivation kinetics; type: in vitro ADME, human; details: other: CYP2C19, 95% CI in parentheses, pH 7.4
[8] = substrate: Cc1cccc(Nc2ccccc2C(=O)O)c1C; test: Steady-state bioactivation kinetics; type: in vitro ADME, human; details: other: CYP2C19, path 1, 2, 95% CI in parentheses, pH 7.4
[9] = substrate: O=C(O)c1ccccc1Nc1cccc(C(F)(F)F)c1; test: Steady-state bioactivation kinetics; type: in vitro ADME, human; details: other: CYP2C19; metabolite M2/M4, path 1, 2; 95% CI in parentheses; pH 7.4
[10] = substrate: Cc1c(Cl)cccc1Nc1ccccc1C(=O)O; test: cells, lysate or membranes named; details: 95% CI in parentheses, pH 7.4
[11] = substrate: Cc1ccc(Nc2c(F)cccc2Cl)c(CC(=O)O)c1; test: cells, lysate or membranes named; details: 95% CI in parentheses, pH 7.4
[12] = substrate: Cc1ccc(Cl)c(Nc2ccccc2C(=O)O)c1Cl; test: cells, lysate or membranes named; details: 95% CI in parentheses, pH 7.4
[13] = substrate: O=C(O)COC(=O)Cc1ccccc1Nc1c(Cl)cccc1Cl; test: Steady-state kinetics of overall NSAID metabolism; type: in vitro ADME, human; details: other: overall metabolism (depletion) by CYP2C19; 95% CI in parentheses; pH 7.4
[14] = substrate: Cc1cccc(Nc2ccccc2C(=O)O)c1C; test: Steady-state kinetics of overall NSAID metabolism; type: in vitro ADME, human; details: other: overall metabolism (depletion) by CYP2C19; 95% CI in parentheses; pH 7.4
[15] = substrate: O=C(O)c1ccccc1Nc1cccc(C(F)(F)F)c1; test: Steady-state kinetics of overall NSAID metabolism; type: in vitro ADME, human; details: other: overall metabolism (depletion) by CYP2C19; 95% CI in parentheses; pH 7.4
[16] = other: CYP2C19, metabolite M2/M4a, path 1, 2
[17] = other: CYP2C19, metabolite M2/M4b, path 1, 2
[18] = other: overall metabolism (depletion) by CYP2C19
[19] = other: CYP2C19, metabolite M2/M4, path 1, 2
[20] = other: CYP2C19, metabolite M6a, path 3
[21] = other: CYP2C19, metabolite M6b, path 3
[22] = other: CYP2C19, metabolite M6, path 3

T1 sequence (P08684 whole entry): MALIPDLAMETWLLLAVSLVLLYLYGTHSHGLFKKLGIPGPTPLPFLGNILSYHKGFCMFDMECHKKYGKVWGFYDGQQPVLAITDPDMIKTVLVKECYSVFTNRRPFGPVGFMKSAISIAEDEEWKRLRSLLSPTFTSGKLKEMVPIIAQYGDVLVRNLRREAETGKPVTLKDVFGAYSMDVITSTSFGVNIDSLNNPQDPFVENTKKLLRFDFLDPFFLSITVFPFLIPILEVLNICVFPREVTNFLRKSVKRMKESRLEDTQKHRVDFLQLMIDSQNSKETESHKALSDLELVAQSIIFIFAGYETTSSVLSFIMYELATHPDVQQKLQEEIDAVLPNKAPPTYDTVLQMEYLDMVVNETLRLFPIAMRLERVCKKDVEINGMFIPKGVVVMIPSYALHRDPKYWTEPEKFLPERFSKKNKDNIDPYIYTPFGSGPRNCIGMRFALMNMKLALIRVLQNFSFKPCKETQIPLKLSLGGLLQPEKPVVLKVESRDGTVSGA
CYP2C9, sequence (P11712 whole entry): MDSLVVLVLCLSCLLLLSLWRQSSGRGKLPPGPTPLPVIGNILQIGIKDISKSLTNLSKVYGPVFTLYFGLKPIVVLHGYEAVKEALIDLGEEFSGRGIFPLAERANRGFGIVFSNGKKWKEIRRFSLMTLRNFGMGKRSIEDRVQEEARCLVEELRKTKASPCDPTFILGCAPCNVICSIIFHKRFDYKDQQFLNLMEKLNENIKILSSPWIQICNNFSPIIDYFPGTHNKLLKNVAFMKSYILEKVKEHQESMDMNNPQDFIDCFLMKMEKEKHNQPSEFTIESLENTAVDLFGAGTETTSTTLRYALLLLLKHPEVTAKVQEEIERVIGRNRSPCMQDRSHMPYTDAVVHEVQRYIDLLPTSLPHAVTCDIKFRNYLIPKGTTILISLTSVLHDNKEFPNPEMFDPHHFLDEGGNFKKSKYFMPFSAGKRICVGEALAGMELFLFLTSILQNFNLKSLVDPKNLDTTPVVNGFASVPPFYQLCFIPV

O=C(O)Cc1ccccc1Nc1c(Cl)cccc1Cl [DIC, diclofenac]
Km at 60 min (CYP3A4 [1]; human, recombinant CYP3A4 Supersomes, pH 7.4): 130 µM | Vmax (CYP3A4 [1]; overall metabolism (depletion) by CYP3A4, 95% CI in parentheses): 5480 (5090–5930) pmol/min/nmol protein | Bioactivation Percent (CYP2C19 [2]; CYP2C19 contribution to total CLbioact of the NSAID): 1.0% | Detoxification Percent (CYP2C19 [2]; CYP2C19 contribution to total CLdetox of the NSAID): 5.5% | Bioactivation Percent (CYP2C9; CYP2C9 contribution to total CLbioact of the NSAID): 97.9% | Detoxification Percent (CYP2C9; CYP2C9 contribution to total CLdetox of the NSAID): 12.0% | Bioactivation Percent (CYP3A4 [3]; CYP3A4 contribution to total CLbioact of the NSAID): 1.1% | Detoxification Percent (CYP3A4 [3]; CYP3A4 contribution to total CLdetox of the NSAID): 75.9% | Bioactivation Percent (CYP2C8 [4]; CYP2C8 contribution to total CLbioact of the NSAID): 0% | Detoxification Percent (CYP2C8 [4]; CYP2C8 contribution to total CLdetox of the NSAID): 6.5% | Km at 60 min (CYP2C19 [5]; human, recombinant CYP2C19 Supersomes, pH 7.4): 70.5 µM | Vmax (CYP2C19 [5]; overall metabolism (depletion) by CYP2C19, 95% CI in parentheses): 1940 (1840–2040) pmol/min/nmol protein | Km at 60 min (CYP2C8 [6]; human, recombinant CYP2C8 Supersomes, pH 7.4): 83 µM | Vmax (CYP2C8 [6]; overall metabolism (depletion) by CYP2C8, 95% CI in parentheses): 1240 (1170–1320) pmol/min/nmol protein

B1: CYP2C19 (Homo sapiens) (protein)
chain: MDPFVVLVLCLSCLLLLSIWRQSSGRGKLPPGPTPLPVIGNILQIDIKDVSKSLTNLSKIYGPVFTLYFGLERMVVLHGYEVVKEALIDLGEEFSGRGHFPLAERANRGFGIVFSNGKRWKEIRRFSLMTLRNFGMGKRSIEDRVQEEARCLVEELRKTKASPCDPTFILGCAPCNVICSIIFQKRFDYKDQQFLNLMEKLNENIRIVSTPWIQICNNFPTIIDYFPGTHNKLLKNLAFMESDILEKVKEHQESMDINNPRDFIDCFLIKMEKEKQNQQSEFTIENLVITAADLLGAGTETTSTTLRYALLLLLKHPEVTAKVQEEIERVIGRNRSPCMQDRGHMPYTDAVVHEVQRYIDLIPTSLPHAVTCDVKFRNYLIPKGTTILTSLTSVLHDNKEFPNPEMFDPRHFLDEGGNFKKSNYFMPFSAGKRICVGEGLARMELFLFLTFILQNFNLKSLIDPKDLDTTPVVNGFASVPPFYQLCFIPV
Km ([7]; metabolite M2/M4, path 1, 2): 18.8 µM | kcat ([7]; metabolite M2/M4, path 1, 2): 4.4 (4.2–4.7) pmol/min/nmol protein | Km ([7]; metabolite M6, path 3): 74.4 µM | kcat ([7]; metabolite M6, path 3): 5.6 (5.2–6.1) pmol/min/nmol protein | Km ([7]; metabolite M9, path 4): 8.9 µM | kcat ([7]; metabolite M9, path 4): 4.1 (3.9–4.4) pmol/min/nmol protein | Km ([8]; metabolite M2/M4a): 10.8 µM | kcat ([8]; metabolite M2/M4a): 2.0 (1.9–2.1) pmol/min/nmol protein | Km ([8]; metabolite M2/M4b): 13.6 µM | kcat ([8]; metabolite M2/M4b): 1.5 (1.4–1.6) pmol/min/nmol protein | Km [9]: 28.5 µM | kcat [9]: 7.7 (7.4–8.1) pmol/min/nmol protein | Km [10, 16]: 7.4 µM | kcat [10, 16]: 2.6 (2.5–2.7) pmol/min/nmol protein | Km [10, 17]: 11 µM | kcat [10, 17]: 3.9 (3.8–4.0) pmol/min/nmol protein | Km [10, 18]: 110 (94–130) μM | kcat [10, 18]: 2070 (1950–2210) pmol/min/nmol protein | Km [11, 19]: 36.8 µM | kcat [11, 19]: 2.5 (2.4–2.7) pmol/min/nmol protein | Km [11, 20]: 47.6 µM | kcat [11, 20]: 1.8 (1.7–2.0) pmol/min/nmol protein | Km [11, 21]: 115 µM | kcat [11, 21]: 2.4 (2.2–2.6) pmol/min/nmol protein | Km [11, 18]: 77.2 (64–93) μM | kcat [11, 18]: 2610 (2450–2790) pmol/min/nmol protein | Km [12, 19]: 5.8 µM | kcat [12, 19]: 3.1 (3.0–3.2) pmol/min/nmol protein | Km [12, 22]: 18.9 µM | kcat [12, 22]: 64.2 (61.2–67.4) pmol/min/nmol protein | kcat ([12]; other: CYP2C19, metabolite M9, path 4): 6.1 (5.7–6.4) pmol/min/nmol protein | Km [12, 18]: 160 (130–190) μM | kcat [12, 18]: 2400 (2210–2610) pmol/min/nmol protein | Km [13]: 380 (320–460) μM | kcat [13]: 3050 (2760–3410) pmol/min/nmol protein | Km [14]: 220 (180–260) μM | kcat [14]: 3060 (2830–3320) pmol/min/nmol protein | Km [15]: 150 (120–180) μM | kcat [15]: 2500 (2310–2730) pmol/min/nmol protein

Source: article PMC8710044 (Biochemical pharmacology, 2021)
